Columns and labels:
Experiment in all cases: holdup assay
Parameters in all cases: key: below the threshold = too weak to quantify, mostly under pKd 3.1 to 4
APBA2_2, Q99767 = molecular target: T1, APBA2_2, Q99767
T1 sequence (Q99767 654-744, limits assumed, looked up): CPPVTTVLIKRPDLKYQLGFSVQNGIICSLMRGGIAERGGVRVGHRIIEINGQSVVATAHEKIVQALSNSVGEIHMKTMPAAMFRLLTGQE

ARHGEF12, Q9NZN5-2 = molecular target: ARHGEF12, Q9NZN5-2
Inadl_6, Q8NI35 = molecular target: Inadl_6, Q8NI35
LNX1_2, Q8TBB1 = molecular target: LNX1_2, Q8TBB1
Sequence of LNX1_2, Q8TBB1 (Q8TBB1 371-470): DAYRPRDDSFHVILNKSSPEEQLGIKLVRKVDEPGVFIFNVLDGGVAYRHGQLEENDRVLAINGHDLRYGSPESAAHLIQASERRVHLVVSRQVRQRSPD

NHERF4_4, Q86UT5 = molecular target: NHERF4_4, Q86UT5
Sequence of NHERF4_4, Q86UT5 (Q86UT5 464-550): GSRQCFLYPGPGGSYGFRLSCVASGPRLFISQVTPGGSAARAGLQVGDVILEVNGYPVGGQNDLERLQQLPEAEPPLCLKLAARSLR

GRIP1_2, Q9Y3R0 = molecular target: T2, GRIP1_2, Q9Y3R0
T2 sequence (Q9Y3R0 145-248, limits assumed, looked up): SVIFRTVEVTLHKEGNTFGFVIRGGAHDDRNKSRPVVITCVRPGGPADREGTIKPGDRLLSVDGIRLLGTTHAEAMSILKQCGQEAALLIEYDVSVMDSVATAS

MAGI2_2, Q86UL8 = molecular target: MAGI2_2, Q86UL8
Sequence of MAGI2_2, Q86UL8 (Q86UL8 410-522): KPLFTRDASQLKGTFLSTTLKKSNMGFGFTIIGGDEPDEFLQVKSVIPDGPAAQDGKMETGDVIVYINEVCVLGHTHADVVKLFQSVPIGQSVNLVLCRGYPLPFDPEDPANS

LIMK2, P53671 = molecular target: LIMK2, P53671
Sequence of LIMK2, P53671 (P53671 143-248): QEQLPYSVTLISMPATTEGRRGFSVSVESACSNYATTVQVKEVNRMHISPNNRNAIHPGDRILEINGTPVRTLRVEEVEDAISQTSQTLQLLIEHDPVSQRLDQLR

MAGI1_1, Q96QZ7 = molecular target: MAGI1_1, Q96QZ7
Sequence of MAGI1_1, Q96QZ7 (Q96QZ7 1-106): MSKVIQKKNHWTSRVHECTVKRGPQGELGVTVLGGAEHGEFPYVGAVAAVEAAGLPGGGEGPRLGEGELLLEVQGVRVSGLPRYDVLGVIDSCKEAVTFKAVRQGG

MAGI2_5, Q86UL8 = molecular target: MAGI2_5, Q86UL8
Sequence of MAGI2_5, Q86UL8 (Q86UL8 915-1017): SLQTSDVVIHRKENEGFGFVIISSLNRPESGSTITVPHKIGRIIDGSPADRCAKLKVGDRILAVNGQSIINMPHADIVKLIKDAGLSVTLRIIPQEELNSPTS

MPDZ_12, O75970 = molecular target: T3, MPDZ_12, O75970
T3 sequence (O75970 1857-1958, limits assumed, looked up): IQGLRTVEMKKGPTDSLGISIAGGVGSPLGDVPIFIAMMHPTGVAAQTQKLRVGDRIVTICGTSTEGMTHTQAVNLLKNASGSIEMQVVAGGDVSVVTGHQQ

GRIP1_7, Q9Y3R0 = molecular target: T4, GRIP1_7, Q9Y3R0
T4 sequence (Q9Y3R0 999-1096, limits assumed, looked up): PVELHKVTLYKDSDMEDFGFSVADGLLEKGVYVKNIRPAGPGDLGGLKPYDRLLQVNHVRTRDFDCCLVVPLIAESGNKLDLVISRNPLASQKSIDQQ

FRMPD2_2, Q68DX3 = molecular target: FRMPD2_2, Q68DX3
Sequence of FRMPD2_2, Q68DX3 (Q68DX3 944-1038): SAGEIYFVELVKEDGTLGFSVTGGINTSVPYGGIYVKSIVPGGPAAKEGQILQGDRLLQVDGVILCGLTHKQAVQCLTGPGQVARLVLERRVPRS

DFNB31_1, Q9P202 = molecular target: T5, DFNB31_1, Q9P202
T5 sequence (Q9P202 135-233, limits assumed, looked up): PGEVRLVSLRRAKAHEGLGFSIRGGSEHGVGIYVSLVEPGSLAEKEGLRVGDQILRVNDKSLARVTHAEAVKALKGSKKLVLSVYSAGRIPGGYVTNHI

GRID2IP_2, A4D2P6 = molecular target: GRID2IP_2, A4D2P6
Sequence of GRID2IP_2, A4D2P6 (A4D2P6 272-370): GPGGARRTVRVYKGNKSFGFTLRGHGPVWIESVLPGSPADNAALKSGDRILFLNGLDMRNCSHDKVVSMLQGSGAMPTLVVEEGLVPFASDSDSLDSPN

CARD11, Q9BXL7 = molecular target: T6, CARD11, Q9BXL7
T6 sequence (Q9BXL7 662-765, limits assumed, looked up): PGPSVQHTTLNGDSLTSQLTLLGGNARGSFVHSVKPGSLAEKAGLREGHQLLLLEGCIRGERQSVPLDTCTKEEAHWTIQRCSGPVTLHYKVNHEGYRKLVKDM

Inadl_9, Q8NI35 = molecular target: Inadl_9, Q8NI35
Sequence of Inadl_9, Q8NI35 (Q8NI35 1530-1615): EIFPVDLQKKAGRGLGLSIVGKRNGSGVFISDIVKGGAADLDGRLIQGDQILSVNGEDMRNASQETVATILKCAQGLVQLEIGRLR

NHERF3_3, Q5T2W1 = molecular target: T7, NHERF3_3, Q5T2W1
T7 sequence (Q5T2W1 238-333, limits assumed, looked up): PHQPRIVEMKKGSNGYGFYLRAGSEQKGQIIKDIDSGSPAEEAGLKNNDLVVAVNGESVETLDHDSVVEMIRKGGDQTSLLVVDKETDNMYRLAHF

SIPA1L2, Q9P2F8 = molecular target: T8, SIPA1L2, Q9P2F8
T8 sequence (Q9P2F8 945-1036, limits assumed, looked up): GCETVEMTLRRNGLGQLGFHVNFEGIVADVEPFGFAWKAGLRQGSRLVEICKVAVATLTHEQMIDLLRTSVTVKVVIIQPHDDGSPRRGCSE

GRIP2_4, Q9C0E4 = molecular target: GRIP2_4, Q9C0E4
Sequence of GRIP2_4, Q9C0E4 (Q9C0E4 446-548): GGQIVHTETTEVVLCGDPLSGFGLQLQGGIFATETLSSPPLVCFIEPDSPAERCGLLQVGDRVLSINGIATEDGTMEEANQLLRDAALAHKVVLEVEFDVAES

PDLIM1, O00151 = molecular target: PDLIM1, O00151
Sequence of PDLIM1, O00151 (O00151 1-87): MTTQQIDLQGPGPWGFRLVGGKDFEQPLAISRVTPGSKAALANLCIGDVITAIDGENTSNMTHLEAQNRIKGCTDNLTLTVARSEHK

CASK, O14936 = molecular target: CASK, O14936
Sequence of CASK, O14936 (O14936 487-570): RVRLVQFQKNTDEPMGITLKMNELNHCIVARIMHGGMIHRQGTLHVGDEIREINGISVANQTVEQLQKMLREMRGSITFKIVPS

RADIL, Q96JH8 = molecular target: T9, RADIL, Q96JH8
T9 sequence (Q96JH8 971-1071, limits assumed, looked up): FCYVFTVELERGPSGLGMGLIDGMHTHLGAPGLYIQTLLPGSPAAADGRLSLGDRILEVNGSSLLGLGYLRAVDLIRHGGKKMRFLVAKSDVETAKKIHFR

GRIP1_3, Q9Y3R0 = molecular target: T10, GRIP1_3, Q9Y3R0
T10 sequence (Q9Y3R0 247-346, limits assumed, looked up): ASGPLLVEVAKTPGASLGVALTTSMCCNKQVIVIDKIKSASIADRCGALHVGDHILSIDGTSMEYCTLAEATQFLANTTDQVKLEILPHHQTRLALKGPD

IL16_1, Q14005 = molecular target: IL16_1, Q14005
Sequence of IL16_1, Q14005 (Q14005 210-306): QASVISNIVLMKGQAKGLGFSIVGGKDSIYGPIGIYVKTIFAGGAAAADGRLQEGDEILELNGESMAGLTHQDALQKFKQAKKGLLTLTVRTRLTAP

LNX2_3, Q8N448 = molecular target: T11, LNX2_3, Q8N448
T11 sequence (Q8N448 463-564, limits assumed, looked up): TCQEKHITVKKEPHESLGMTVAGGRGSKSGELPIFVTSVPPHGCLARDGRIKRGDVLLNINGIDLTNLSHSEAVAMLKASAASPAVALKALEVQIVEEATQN

GRID2IP_1, A4D2P6 = molecular target: GRID2IP_1, A4D2P6
Sequence of GRID2IP_1, A4D2P6 (A4D2P6 1-87): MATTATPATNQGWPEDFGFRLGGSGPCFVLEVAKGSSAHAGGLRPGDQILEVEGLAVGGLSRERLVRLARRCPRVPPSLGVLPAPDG

[1] = plain residues with an end cap or a label only (N-terminal biotin on a linker: ttds)
[2] = plain residues with an end cap or a label only (N-terminal biotin on a linker: ahx)

Sequence of Inadl_6, Q8NI35 (Q8NI35 1058-1167): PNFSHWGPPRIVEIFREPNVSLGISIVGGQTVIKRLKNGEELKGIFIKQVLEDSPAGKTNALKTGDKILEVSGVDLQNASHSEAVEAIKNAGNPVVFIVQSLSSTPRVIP
Sequence of ARHGEF12, Q9NZN5-2 (Q9NZN5 other isoform, or with tags, fused parts or gaps): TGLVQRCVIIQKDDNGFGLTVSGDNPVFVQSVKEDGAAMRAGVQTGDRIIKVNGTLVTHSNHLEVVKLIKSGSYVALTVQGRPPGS

SEKHFRETEV [HTLV1-TAX1, P03409]
pKd (APBA2_2, Q99767; [1]): below the threshold
pKd (ARHGEF12, Q9NZN5-2; [1]): 3.81
pKd (Inadl_6, Q8NI35; [1]): 3.69
pKd (LNX1_2, Q8TBB1; [1]): 3.71
pKd (NHERF4_4, Q86UT5; [1]): below the threshold
pKd (GRIP1_2, Q9Y3R0; [1]): below the threshold
pKd (MAGI2_2, Q86UL8; [1]): 4.57
pKd (LIMK2, P53671; [1]): below the threshold
pKd (MAGI1_1, Q96QZ7; [1]): below the threshold
pKd (MAGI2_5, Q86UL8; [1]): 4.84
pKd (MPDZ_12, O75970; [1]): below the threshold
pKd (GRIP1_7, Q9Y3R0; [1]): below the threshold
pKd (FRMPD2_2, Q68DX3; [1]): below the threshold
pKd (DFNB31_1, Q9P202; [1]): 3.96
pKd (GRID2IP_2, A4D2P6; [1]): 3.84
pKd (CARD11, Q9BXL7; [1]): below the threshold
pKd (Inadl_9, Q8NI35; [1]): below the threshold
pKd (NHERF3_3, Q5T2W1; [1]): below the threshold
pKd (SIPA1L2, Q9P2F8; [1]): below the threshold
pKd (GRIP2_4, Q9C0E4; [1]): below the threshold
pKd (PDLIM1, O00151; [1]): 3.69
pKd (CASK, O14936; [1]): below the threshold
pKd (RADIL, Q96JH8; [1]): below the threshold
pKd (GRIP1_3, Q9Y3R0; [1]): below the threshold
pKd (IL16_1, Q14005; [1]): 4.44
pKd (LNX2_3, Q8N448; [1]): below the threshold
pKd (GRID2IP_1, A4D2P6; [1]): below the threshold

EKLSSIESDV [GRIN2B, Q13224]
pKd (APBA2_2, Q99767; [2]): below the threshold
pKd (ARHGEF12, Q9NZN5-2; [2]): 3.68
pKd (Inadl_6, Q8NI35; [2]): below the threshold
pKd (LNX1_2, Q8TBB1; [2]): below the threshold
pKd (NHERF4_4, Q86UT5; [2]): below the threshold
pKd (GRIP1_2, Q9Y3R0; [2]): below the threshold
pKd (MAGI2_2, Q86UL8; [2]): below the threshold
pKd (LIMK2, P53671; [2]): below the threshold
pKd (MAGI1_1, Q96QZ7; [2]): below the threshold
pKd (MAGI2_5, Q86UL8; [2]): 3.82
pKd (MPDZ_12, O75970; [2]): below the threshold
pKd (GRIP1_7, Q9Y3R0; [2]): 3.48
pKd (FRMPD2_2, Q68DX3; [2]): 3.91
pKd (DFNB31_1, Q9P202; [2]): below the threshold
pKd (GRID2IP_2, A4D2P6; [2]): below the threshold
pKd (CARD11, Q9BXL7; [2]): below the threshold
pKd (Inadl_9, Q8NI35; [2]): below the threshold
pKd (NHERF3_3, Q5T2W1; [2]): below the threshold
pKd (SIPA1L2, Q9P2F8; [2]): below the threshold
pKd (GRIP2_4, Q9C0E4; [2]): below the threshold
pKd (PDLIM1, O00151; [2]): 3.71
pKd (CASK, O14936; [2]): below the threshold
pKd (RADIL, Q96JH8; [2]): below the threshold
pKd (GRIP1_3, Q9Y3R0; [2]): below the threshold
pKd (IL16_1, Q14005; [2]): 4.02
pKd (LNX2_3, Q8N448; [2]): below the threshold
pKd (GRID2IP_1, A4D2P6; [2]): below the threshold

VNKVWDQSSV [CIT, O14578]
pKd (APBA2_2, Q99767; [1]): below the threshold
pKd (ARHGEF12, Q9NZN5-2; [1]): below the threshold
pKd (Inadl_6, Q8NI35; [1]): below the threshold
pKd (LNX1_2, Q8TBB1; [1]): below the threshold
pKd (NHERF4_4, Q86UT5; [1]): below the threshold
pKd (GRIP1_2, Q9Y3R0; [1]): below the threshold
pKd (MAGI2_2, Q86UL8; [1]): below the threshold
pKd (LIMK2, P53671; [1]): below the threshold
pKd (MAGI1_1, Q96QZ7; [1]): below the threshold
pKd (MAGI2_5, Q86UL8; [1]): 3.7
pKd (MPDZ_12, O75970; [1]): below the threshold
pKd (GRIP1_7, Q9Y3R0; [1]): below the threshold
pKd (FRMPD2_2, Q68DX3; [1]): below the threshold
pKd (DFNB31_1, Q9P202; [1]): 3.52
pKd (GRID2IP_2, A4D2P6; [1]): 3.74
pKd (CARD11, Q9BXL7; [1]): below the threshold
pKd (Inadl_9, Q8NI35; [1]): below the threshold
pKd (NHERF3_3, Q5T2W1; [1]): below the threshold
pKd (SIPA1L2, Q9P2F8; [1]): below the threshold
pKd (GRIP2_4, Q9C0E4; [1]): below the threshold
pKd (PDLIM1, O00151; [1]): below the threshold
pKd (CASK, O14936; [1]): below the threshold
pKd (RADIL, Q96JH8; [1]): below the threshold
pKd (GRIP1_3, Q9Y3R0; [1]): below the threshold
pKd (IL16_1, Q14005; [1]): 3.68
pKd (LNX2_3, Q8N448; [1]): below the threshold
pKd (GRID2IP_1, A4D2P6; [1]): below the threshold
